{
  "source": "paper PMC12298754",
  "key": {"[1]": {"biological_target": "PD-L1 protein on 4T1 cells (programmed cell death ligand-1) (mouse (endogenous in 4T1)) (UniProt Q9EP73)", "sequence (Q9EP73 19-290)": "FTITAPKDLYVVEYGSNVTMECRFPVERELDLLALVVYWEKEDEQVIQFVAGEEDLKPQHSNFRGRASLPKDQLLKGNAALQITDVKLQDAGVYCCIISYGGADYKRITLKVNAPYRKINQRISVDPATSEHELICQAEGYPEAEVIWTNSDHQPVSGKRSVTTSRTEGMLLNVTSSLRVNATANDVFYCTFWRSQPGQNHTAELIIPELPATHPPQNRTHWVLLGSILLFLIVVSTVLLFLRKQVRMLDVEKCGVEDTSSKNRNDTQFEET", "assay": "radioligand binding; competition on 4T1 cells adhered to 96-well plates, 37 °C, 1 h; [18F]AlF-NOTA-iPD-L1 constant at 1 ng/20 kBq; unlabeled peptides 10 to 0.00001 mM; washed with pH 7.4 buffer (0.1% BSA, 25 mM Tris-HCl, 1 mM CaCl2, 120 mM NaCl); corrected for non-specific binding with …; n = 3"}, "[2]": {"biological_target": "PD-L1 protein on 4T1 cells (programmed cell death ligand-1) (mouse (endogenous in 4T1)) (UniProt Q9EP73)"}},
  "data": [
    {"substance": "AlCl-NOTA-iPD-L1 (peptide)", "values": [
      {"measurement": "IC50", "setting": "[1]", "value": 9.27, "unit": "nM"}
    ]},
    {"substance": "WL12 (peptide)", "values": [
      {"measurement": "IC50", "setting": "[1]", "value": 6.08, "unit": "nM"}
    ]},
    {"substance": "[18F]AlF-NOTA-iPD-L1 (peptide)", "values": [
      {"measurement": "tumor uptake at 1 h in mice with 4T1 tumors that received a blocking dose of cold iPD-L1 30 min before (% ID/g)", "setting": "[2]", "value": 1.81, "unit": "% ID/g"},
      {"measurement": "tumor uptake in mice with induced PD-L1-positive 4T1 tumors, 1, 2 and 3 h after injection (% ID/g)", "setting": "[2]", "value": 6.54, "unit": "% ID/g"}
    ]}
  ]
}
